Results from the supplement of paper PMC9876800.

System: peptide library, one residue held at a place counted from the S/T acceptor
Test: relative phosphorylation of the sub-library (ratio to the mean residue at this position); higher = residue favoured
How it was run: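 Relative sub-library phosphorylation is a ratio to the mean residue at the same position. Purified recombinant kinases were incubated under kinase-specific conditions with biotinylated degenerate peptide sub-libraries, each fixing one residue at one position around a central Ser/Thr, using 50 μM peptide and 50 μM ATP spiked with γ-32P-ATP for 90 min. Spots captured on streptavidin membranes were phosphorimaged and quantified by densitometry.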

Sequence of MAPK7, construct: aa1-405, human (Q13164 1-405, looked up): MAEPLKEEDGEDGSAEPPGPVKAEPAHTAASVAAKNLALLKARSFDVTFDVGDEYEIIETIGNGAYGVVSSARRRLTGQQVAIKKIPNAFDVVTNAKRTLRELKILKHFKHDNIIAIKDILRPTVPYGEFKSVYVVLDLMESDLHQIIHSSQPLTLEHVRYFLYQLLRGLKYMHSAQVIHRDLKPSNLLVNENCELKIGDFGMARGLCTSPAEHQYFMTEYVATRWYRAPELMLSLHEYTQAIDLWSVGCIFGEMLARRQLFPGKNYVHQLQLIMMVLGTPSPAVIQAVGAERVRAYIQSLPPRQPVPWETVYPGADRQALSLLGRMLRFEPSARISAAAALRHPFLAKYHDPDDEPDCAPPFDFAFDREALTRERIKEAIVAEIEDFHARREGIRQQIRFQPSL

MAPK7, construct: aa1-405, human (from UniProt Q13164)
relative phosphorylation
Conditions	at +1	at +2	at +3	at +4	at -1	at -2	at -3	at -4	at -5
A fixed	5.25	0.808	0.997	0.943	0.957	0.867	1.2	1.21	1.14
D fixed	0.374	0.579	0.866	1.2	0.745	0.491	0.862	1.11	0.83
E fixed	0.338	0.519	0.827	0.951	0.646	0.484	0.872	1.12	0.81
F fixed	0.47	0.908	0.941	0.922	0.956	0.658	0.778	0.919	1.03
G fixed	1.67	1	1.14	1.08	0.808	0.666	1.08	1.09	0.977
H fixed	0.466	0.917	0.886	1.05	1.28	0.568	0.822	0.913	1.07
I fixed	0.372	1.08	1.45	0.998	0.684	1.43	0.988	0.891	1.02
K fixed	0.449	1.24	0.59	0.947	0.834	0.797	0.827	0.943	0.988
L fixed	0.54	1.02	1.27	0.918	1.61	2.64	1.07	0.938	1.06
M fixed	0.523	1.08	1.12	0.993	1.66	1.91	1.13	0.976	0.986
N fixed	0.464	0.963	0.789	0.8	0.948	0.61	1.06	0.954	1
P fixed	3.79	0.758	1.13	1.04	1.13	2.1	1.87	1.16	1.03
Q fixed	0.438	0.927	0.818	1.07	1.02	0.928	0.926	0.941	0.867
R fixed	0.471	2	0.794	0.939	0.983	0.695	1.04	0.894	1.11
V fixed	0.426	1.16	1.08	0.975	0.69	0.986	0.96	0.982	1.01
W fixed	0.534	1.1	1.2	1.21	0.844	0.631	0.791	1.03	0.892
Y fixed	0.429	0.945	1.1	0.97	1.2	0.533	0.737	0.931	1.18
pThr fixed	0.632	0.779	0.702	0.863	0.541	0.976	0.946	1.07	0.901
pTyr fixed	0.518	0.587	0.989	0.835	0.945	0.815	1.02	1.11	1.04
